What was measured:
[1] = target: FVIII mutant L/L 2251/2252 L/S (L2252S) (UniProt P00451)
[2] = target: FVIII mutant M/F/L 2199/2200/2252 W/W/S (UniProt P00451)
[3] = target: FVIII mutant M/F 2199/2200 W/W (UniProt P00451)
FVIII mutant M/F 2199/2200 W/W, sequence (P00451 other isoform, or with tags, fused parts or gaps mutant): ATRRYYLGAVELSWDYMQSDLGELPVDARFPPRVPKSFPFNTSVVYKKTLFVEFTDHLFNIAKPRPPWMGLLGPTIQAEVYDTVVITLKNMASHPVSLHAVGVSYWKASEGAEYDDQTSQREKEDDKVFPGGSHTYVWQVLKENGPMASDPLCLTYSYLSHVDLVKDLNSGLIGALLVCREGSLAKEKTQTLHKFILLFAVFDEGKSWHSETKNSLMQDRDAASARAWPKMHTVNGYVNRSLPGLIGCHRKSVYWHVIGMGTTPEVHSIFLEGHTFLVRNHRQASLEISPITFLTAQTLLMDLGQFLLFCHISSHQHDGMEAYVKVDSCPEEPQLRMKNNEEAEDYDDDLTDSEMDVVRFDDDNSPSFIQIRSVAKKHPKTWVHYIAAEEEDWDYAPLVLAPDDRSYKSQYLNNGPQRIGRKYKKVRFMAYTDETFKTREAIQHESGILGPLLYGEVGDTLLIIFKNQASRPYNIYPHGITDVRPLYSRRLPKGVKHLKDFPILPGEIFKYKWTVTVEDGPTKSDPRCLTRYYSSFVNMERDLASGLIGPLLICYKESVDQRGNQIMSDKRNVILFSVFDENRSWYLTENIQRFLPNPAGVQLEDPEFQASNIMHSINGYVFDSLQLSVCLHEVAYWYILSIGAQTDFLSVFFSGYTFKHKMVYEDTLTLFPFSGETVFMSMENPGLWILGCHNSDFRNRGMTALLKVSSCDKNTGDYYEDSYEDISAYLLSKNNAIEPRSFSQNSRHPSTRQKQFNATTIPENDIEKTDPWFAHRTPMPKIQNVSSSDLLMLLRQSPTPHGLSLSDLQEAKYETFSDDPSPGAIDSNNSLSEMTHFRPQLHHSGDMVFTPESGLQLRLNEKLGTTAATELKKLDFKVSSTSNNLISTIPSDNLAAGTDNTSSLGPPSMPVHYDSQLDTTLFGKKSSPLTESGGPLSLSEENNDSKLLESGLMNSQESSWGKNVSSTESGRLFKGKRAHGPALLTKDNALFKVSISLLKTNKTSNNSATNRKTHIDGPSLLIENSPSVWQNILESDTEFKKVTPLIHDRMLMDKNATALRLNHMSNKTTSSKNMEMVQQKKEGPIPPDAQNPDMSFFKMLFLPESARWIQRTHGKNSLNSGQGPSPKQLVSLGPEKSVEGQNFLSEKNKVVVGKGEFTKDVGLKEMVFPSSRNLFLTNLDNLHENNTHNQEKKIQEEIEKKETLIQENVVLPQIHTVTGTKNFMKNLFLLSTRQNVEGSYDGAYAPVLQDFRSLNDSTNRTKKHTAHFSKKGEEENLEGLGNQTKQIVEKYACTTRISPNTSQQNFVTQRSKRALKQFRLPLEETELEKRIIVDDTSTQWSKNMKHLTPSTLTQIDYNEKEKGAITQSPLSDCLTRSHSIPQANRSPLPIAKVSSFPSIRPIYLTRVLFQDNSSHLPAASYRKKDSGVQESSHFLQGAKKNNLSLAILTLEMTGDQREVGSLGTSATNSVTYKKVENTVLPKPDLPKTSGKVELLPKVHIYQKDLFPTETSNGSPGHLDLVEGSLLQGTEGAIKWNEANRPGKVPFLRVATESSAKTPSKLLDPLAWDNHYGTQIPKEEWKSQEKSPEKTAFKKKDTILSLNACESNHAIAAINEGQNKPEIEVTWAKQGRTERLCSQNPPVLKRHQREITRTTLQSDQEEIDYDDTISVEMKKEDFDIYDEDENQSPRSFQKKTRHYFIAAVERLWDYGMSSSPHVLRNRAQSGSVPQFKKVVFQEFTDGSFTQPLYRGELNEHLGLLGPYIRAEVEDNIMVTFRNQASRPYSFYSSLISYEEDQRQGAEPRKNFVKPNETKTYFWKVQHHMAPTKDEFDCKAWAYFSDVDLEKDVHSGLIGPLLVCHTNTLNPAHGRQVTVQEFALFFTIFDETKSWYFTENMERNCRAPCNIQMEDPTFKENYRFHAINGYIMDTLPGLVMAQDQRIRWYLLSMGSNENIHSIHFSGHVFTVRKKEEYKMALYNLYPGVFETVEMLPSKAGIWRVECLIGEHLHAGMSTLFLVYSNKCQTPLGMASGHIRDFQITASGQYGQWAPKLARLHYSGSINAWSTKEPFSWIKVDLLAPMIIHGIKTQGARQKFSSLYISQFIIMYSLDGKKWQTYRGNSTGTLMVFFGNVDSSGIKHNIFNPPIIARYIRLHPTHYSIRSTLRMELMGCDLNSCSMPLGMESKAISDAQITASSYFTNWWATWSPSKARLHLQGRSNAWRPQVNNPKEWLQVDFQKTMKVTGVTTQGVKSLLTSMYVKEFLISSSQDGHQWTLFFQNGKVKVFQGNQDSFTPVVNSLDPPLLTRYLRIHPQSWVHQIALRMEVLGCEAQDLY

FVIII mutant L/L 2251/2252 L/S (L2252S), sequence (P00451 20-2351 L2271S): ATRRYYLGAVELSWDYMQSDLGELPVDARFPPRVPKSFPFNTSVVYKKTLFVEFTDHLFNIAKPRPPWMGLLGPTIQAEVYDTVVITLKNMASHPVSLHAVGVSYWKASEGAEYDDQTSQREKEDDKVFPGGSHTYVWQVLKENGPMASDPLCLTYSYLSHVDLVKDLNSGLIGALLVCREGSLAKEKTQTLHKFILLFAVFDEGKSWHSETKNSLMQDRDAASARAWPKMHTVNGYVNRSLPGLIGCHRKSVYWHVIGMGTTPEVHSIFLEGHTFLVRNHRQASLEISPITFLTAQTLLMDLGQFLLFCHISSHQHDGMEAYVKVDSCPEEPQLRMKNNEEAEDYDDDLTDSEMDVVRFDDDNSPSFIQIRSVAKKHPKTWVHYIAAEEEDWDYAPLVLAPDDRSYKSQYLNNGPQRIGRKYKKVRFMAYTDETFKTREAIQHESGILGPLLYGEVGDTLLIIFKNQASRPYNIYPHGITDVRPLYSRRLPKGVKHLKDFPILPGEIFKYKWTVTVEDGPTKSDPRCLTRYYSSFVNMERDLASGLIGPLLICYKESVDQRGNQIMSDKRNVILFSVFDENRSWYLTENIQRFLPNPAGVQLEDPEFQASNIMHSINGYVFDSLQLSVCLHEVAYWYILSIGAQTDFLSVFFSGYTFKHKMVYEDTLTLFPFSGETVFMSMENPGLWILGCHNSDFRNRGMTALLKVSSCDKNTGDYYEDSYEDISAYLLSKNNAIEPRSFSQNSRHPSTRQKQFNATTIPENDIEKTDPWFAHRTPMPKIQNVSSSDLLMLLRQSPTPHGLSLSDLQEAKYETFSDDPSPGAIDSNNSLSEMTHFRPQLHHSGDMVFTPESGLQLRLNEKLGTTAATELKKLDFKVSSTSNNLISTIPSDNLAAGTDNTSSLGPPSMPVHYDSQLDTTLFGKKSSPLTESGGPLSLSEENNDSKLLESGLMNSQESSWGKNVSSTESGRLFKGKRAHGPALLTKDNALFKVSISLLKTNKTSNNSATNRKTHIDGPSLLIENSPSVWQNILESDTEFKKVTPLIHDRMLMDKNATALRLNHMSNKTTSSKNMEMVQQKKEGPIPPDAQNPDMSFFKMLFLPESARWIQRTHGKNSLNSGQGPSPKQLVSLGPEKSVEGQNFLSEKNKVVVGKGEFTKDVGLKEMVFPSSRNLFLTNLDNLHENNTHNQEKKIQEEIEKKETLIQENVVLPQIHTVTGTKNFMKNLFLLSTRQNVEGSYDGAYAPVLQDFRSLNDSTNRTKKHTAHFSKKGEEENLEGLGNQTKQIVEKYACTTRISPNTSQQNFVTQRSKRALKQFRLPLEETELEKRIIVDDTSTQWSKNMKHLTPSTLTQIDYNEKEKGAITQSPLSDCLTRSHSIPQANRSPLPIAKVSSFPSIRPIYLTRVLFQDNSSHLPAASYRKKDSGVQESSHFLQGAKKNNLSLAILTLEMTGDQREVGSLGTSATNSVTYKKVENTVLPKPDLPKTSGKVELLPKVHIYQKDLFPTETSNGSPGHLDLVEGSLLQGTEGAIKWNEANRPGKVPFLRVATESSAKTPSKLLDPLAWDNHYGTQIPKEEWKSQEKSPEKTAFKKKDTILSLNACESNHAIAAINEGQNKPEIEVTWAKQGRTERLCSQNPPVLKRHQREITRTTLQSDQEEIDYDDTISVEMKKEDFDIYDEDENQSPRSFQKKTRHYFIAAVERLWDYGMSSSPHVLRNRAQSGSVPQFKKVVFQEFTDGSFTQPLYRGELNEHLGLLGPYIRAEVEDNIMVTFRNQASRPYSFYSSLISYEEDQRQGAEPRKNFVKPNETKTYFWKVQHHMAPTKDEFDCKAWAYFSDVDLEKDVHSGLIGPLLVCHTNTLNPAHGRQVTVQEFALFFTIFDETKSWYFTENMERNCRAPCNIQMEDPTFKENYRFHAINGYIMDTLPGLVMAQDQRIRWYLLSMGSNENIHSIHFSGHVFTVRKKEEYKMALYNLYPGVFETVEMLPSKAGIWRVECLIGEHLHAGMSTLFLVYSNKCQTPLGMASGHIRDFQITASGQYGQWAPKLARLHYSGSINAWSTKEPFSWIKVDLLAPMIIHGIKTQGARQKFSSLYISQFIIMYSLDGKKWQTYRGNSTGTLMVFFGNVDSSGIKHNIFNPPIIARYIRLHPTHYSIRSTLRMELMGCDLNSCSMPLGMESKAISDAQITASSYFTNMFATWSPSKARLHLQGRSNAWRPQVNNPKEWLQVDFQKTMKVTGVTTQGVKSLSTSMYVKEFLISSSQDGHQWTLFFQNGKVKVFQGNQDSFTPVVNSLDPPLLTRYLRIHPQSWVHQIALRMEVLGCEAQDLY
FVIII mutant M/F/L 2199/2200/2252 W/W/S, sequence (P00451 other isoform, or with tags, fused parts or gaps mutant): as the sequence (P00451 20-2351 L2271S) above, with M2199W, F2200W counted along it

factor IXa
apparent affinity for factor IXa, Xase assay with 15% PS vesicles [1]: the apparent affinity for factor IXa was reduced 5-fold | apparent affinity of factor IXa, Xase assay with saturating PL, 1000 µM [1]: the apparent affinity of factor IXa for the mutants was decreased approximately 4-fold for the three mutants | apparent affinity for factor IXa, Xase assay with 15% PS vesicles [2]: the apparent affinity for factor IXa was reduced 5-fold | apparent affinity of factor IXa, Xase assay with saturating PL, 1000 µM [2]: the apparent affinity of factor IXa for the mutants was decreased approximately 4-fold for the three mutants | apparent affinity for factor IXa, Xase assay with 15% PS vesicles [3]: the apparent affinity for factor IXa was reduced 5-fold | apparent affinity of factor IXa, Xase assay with saturating PL, 1000 µM [3]: the apparent affinity of factor IXa for the mutants was decreased approximately 4-fold for the three mutants
